From patent US20050009182

Target: T1, phiC31 integrase (Streptomyces phage phiC31) (UniProt Q9T221)
T1 sequence: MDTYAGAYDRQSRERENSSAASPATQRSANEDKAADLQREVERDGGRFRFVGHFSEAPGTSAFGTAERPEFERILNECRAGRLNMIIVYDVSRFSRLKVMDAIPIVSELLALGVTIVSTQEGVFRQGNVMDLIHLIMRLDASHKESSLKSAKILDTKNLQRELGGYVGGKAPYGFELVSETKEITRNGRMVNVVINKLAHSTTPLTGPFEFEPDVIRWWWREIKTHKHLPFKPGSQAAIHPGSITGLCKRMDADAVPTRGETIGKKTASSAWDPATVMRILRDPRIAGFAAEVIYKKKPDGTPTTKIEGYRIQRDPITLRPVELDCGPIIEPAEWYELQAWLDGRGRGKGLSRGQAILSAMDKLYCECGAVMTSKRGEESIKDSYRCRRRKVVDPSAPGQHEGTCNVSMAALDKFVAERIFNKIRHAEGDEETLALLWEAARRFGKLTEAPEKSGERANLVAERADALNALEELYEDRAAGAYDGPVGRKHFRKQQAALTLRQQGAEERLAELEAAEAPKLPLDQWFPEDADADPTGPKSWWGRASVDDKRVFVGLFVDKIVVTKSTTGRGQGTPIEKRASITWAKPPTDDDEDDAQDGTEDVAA
Experiment: cell_activity

**Q.** “phiC31 attB (500 bp BamHI-XbaI fragment of pHS21)” was tested. Which activity (Ura+ transformants per 10^7 cells) (S. pombe FY527attPx2, circular pLT50 plus pLT43, 63 without integrase) did it give?
**A.** 2560

**Q.** How did the activity (Ura+ transformants per 10^7 cells) (S. pombe FY527attPx2, linear attB-ura4-attB plus pLT43, 19 without integrase) turn out when “phiC31 attP 84 bp (ApaI-SacI fragment of pHS282)” was run?
**A.** 1570
